Assay results as given in patent publication US20200339636A1.

Biological target: FZDs (endogenous Frizzled receptors of the cells used: HEK293T cells; CSPG4 KO HeLa cells)
Assay: cell-based or functional assay

**Q.** “TcdB^GFE (full length TcdB with 1595VNFLQS replaced by GFE) (from UniProt P18177 1-2366)” was tested. Which toxicity on CSPG4 KO HeLa cells, cell-rounding assay (CR50), against WT TcdB did it give?
**A.** 190 fold
